Changes are numbered by the printed parent chain. In names and notes the source's numbering stands.
B1: wild type human TRPA1 (transient receptor potential channel subfamily A member 1) (natural protein, UniProt O75762 1-1119, looked up)
chain: MKRSLRKMWRPGEKKEPQGVVYEDVPDDTEDFKESLKVVFEGSAYGLQNFNKQKKLKRCDDMDTFFLHYAAAEGQIELMEKITRDSSLEVLHEMDDYGNTPLHCAVEKNQIESVKFLLSRGANPNLRNFNMMAPLHIAVQGMNNEVMKVLLEHRTIDVNLEGENGNTAVIIACTTNNSEALQILLKKGAKPCKSNKWGCFPIHQAAFSGSKECMEIILRFGEEHGYSRQLHINFMNNGKATPLHLAVQNGDLEMIKMCLDNGAQIDPVEKGRCTAIHFAATQGATEIVKLMISSYSGSVDIVNTTDGCHETMLHRASLFDHHELADYLISVGADINKIDSEGRSPLILATASASWNIVNLLLSKGAQVDIKDNFGRNFLHLTVQQPYGLKNLRPEFMQMQQIKELVMDEDNDGCTPLHYACRQGGPGSVNNLLGFNVSIHSKSKDKKSPLHFAASYGRINTCQRLLQDISDTRLLNEGDLHGMTPLHLAAKNGHDKVVQLLLKKGALFLSDHNGWTALHHASMGGYTQTMKVILDTNLKCTDRLDEDGNTALHFAAREGHAKAVALLLSHNADIVLNKQQASFLHLALHNKRKEVVLTIIRSKRWDECLKIFSHNSPGNKCPITEMIEYLPECMKVLLDFCMLHSTEDKSCRDYYIEYNFKYLQCPLEFTKKTPTQDVIYEPLTALNAMVQNNRIELLNHPVCKEYLLMKWLAYGFRAHMMNLGSYCLGLIPMTILVVNIKPGMAFNSTGIINETSDHSEILDTTNSYLIKTCMILVFLSSIFGYCKEAGQIFQQKRNYFMDISNVLEWIIYTTGIIFVLPLFVEIPAHLQWQCGAIAVYFYWMNFLLYLQRFENCGIFIVMLEVILKTLLRSTVVFIFLLLAFGLSFYILLNLQDPFSSPLLSIIQTFSMMLGDINYRESFLEPYLRNELAHPVLSFAQLVSFTIFVPIVLMNLLIGLAVGDIAEVQKHASLKRIAMQVELHTSLEKKLPLWFLRKVDQKSTIVYPNKPRSGGMLFHIFCFLFCTGEIRQEIPNADKSLEMEILKQKYRLKDLTFLLEKQHELIKLIIQKMEIISETEDDDSHCSFQDRFKKEQMEQRNSRWNTVLRAVKAKTHHLEP
modifications: C621 covalently bound to JT010 (TRPA1_(WT-JT010)) or to BITC (TRPA1_(WT-BITC)); N747 glycosylated (two N-acetylglucosamine)
B2: human TRPA1 C621S (natural protein, UniProt O75762 1-1119, looked up)
chain: B1 chain with C621S

Molecular target: the molecule itself
Assay: cryo-EM structure

Protein | stoichiometry N
B1 | 4
B2 | 4
